According to PMC6005794, “Experimental and bioinformatic approach to identifying antigenic epitopes in human α- and β-enolases” (Biochemistry and Biophysics Reports, 2018):
Where two headings read alike, the source gives them in different places.

Columns and labels:
[1] = tested on: anti-β-enolase antibodies; test: ELISA test with pin-tethered peptides; format: binding, rabbit; conditions: relative to N^193VIKEKYGKDATN^205-GG-pin
Experimental: The peptides corresponding to predicted epitopes were synthesized using NCP Block of 96 hydroxypropylmethacrylate pins (MIMOTOPES, Clayton, Victoria, Australia) according to earlier described protocol. The synthesis was performed in 96-well plates, following the one-pin – one-peptide approach. Each pin was submerged in 100 μl of the solution containing 60 mM F-moc amino acid and an equimolar amount of diisopropylcarbodiimide and N-hydroxybenzotriazole as coupling reagents. Each coupling cycle lasted 4 h., and to assess the completion of the coupling reaction; pins were tested with 10 mM bromophenol blue for the presence of free amino groups. Peptides were deprotected and pins washed with MeOH, 0.5% acetic acid in MeOH, MeOH, dried, and stored at − 20 °C. […]
The TBST soaked pins were transferred to a 96-well plate filled with 200 μl of 1% BSA in TBST and incubated for 60 min at room temperature. […] The attached antibodies were detected after incubation of the pins with goat-anti-human IgG-alkaline phosphatase (AP) conjugate (ICN Biomedicals, Aurora, Ohio, USA, diluted according to the manufacturer's recommendations). The AP activity was measured to determine the level of the bound conjugate. […] The enzymatic reaction was stopped by removal of pins from the plate, and the amount of released p-nitrophenol was measured at 406 nm in a plate reader (PerkinElmer). […]

[2] = cited from earlier work
Excerpt: The ion-exchange chromatography was used to purify both α- and β-enolases. The method employed in this work takes advantage of different isoelectric point values calculated for human α- and β-enolases (7.38 and 7.72, respectively), muscle-specific enzymes from rat (7.45) and pig (8.8–9.0), [21]. The summary of human enolase isoenzymes purification is presented in Supplementary Table 1. The purity of the enolase preparations was examined at every purification step by SDS-PAGE and is shown on Supplementary Fig. S1.

[3] = storage stability (enolase activity); format: physicochemical; conditions: 7.5 mM imidazole-HCl pH 6.8, 2.5 mM MgSO4, 50 mM NaCl, 50% glycerol, 4 °C
Experimental: At all stages of the enzyme purification, the magnesium sulfate and temperature set at 4 °C were used to prevent the loss of the enolase activity. Magnesium ions are essential for both catalysis and stability of the enolase dimer, [39]. Purification of β-enolase from human muscle tissue was performed according to the procedure described earlier. Briefly, 110 g of frozen striated muscle was homogenized in deionized water containing 3 mM MgSO4 and protease inhibitors PMSF (phenylmethylsulfonyl fluoride) and aprotinin (2 µg/ml). Homogenization was performed in PT3100D homogenizer (DanLab, Poland) at 4 °C for 10 min. The crude protein extract was incubated at 53–54 °C for 3 min, then cooled to 4 °C and denatured proteins removed by centrifugation at 9000 g for 45 min. The supernatant was fractionated with ammonium sulfate at 4 °C, by adding solid salt in small portions and by stirring gently. The mixture was left overnight at 4 °C after reaching 60% saturation of (NH4)2SO4 and precipitated proteins were centrifuged at 9000 g for 45 min and discarded. Protein precipitation was continued by adding solid (NH4)2SO4 up to 80% saturation, and after overnight storage at 4 C the precipitated proteins were centrifuged. The pellet was dissolved in 20 mM Tris-HCl buffer pH 9.0, containing 3 mM MgSO4 and 1 mM β − mercaptoethanol and dialyzed against this buffer. […]

[4] = muscle-specific enzymes from rat and pig

| Molecule | isoelectric point ([2]; calculated for human enolases) | isoelectric point [2, 4] | further results |
| --- | --- | --- | --- |
| substitution of E^197 in N^193VIKEKYGKDATN^205-GG-pin with alanine: α-enolase epitope 2 peptide with E^197 substituted with alanine |  |  | loss of immunological activity on substitution [1]: 70% |
| human α-enolase: α-enolase purified from human kidney | 7.38 |  |  |
| human β-enolase: β-enolase purified from human skeletal muscle (protein, UniProt P13929 2-434, looked up) Beta-enolase: AMQKIFAREILDSRGNPTVEVDLHTAKGRFRAAVPSGASTGIYEALELRDGDKGRYLGKGVLKAVENINNTLGPALLQKKLSVVDQEKVDKFMIELDGTENKSKFGANAILGVSLAVCKAGAAEKGVPLYRHIADLAGNPDLILPVPAFNVINGGSHAGNKLAMQEFMILPVGASSFKEAMRIGAEVYHHLKGVIKAKYGKDATNVGDEGGFAPNILENNEALELLKTAIQAAGYPDKVVIGMDVAASEFYRNGKYDLDFKSPDDPARHITGEKLGELYKSFIKNYPVVSIEDPFDQDDWATWTSFLSGVNIQIVGDDLTVTNPKRIAQAVEKKACNCLLLKVNQIGSVTESIQACKLAQSNGWGVMVSHRSGETEDTFIADLVVGLCTGQIKTGAPCRSERLAKYNQLMRIEEALGDKAIFAGRKFRNPKAK | 7.72 |  | storage stability [3]: several months without loss of activity |
| muscle-specific enzyme from rat: rat muscle β-enolase (protein, UniProt P15429 2-434, looked up) Beta-enolase: AMQKIFAREILDSRGNPTVEVDLHTAKGRFRAAVPSGASTGIYEALELRDGDKSRYLGKGVLKAVEHINKTLGPALLEKKLSVVDQEKVDKFMIELDGTENKSKFGANAILGVSLAVCKAGAAEKGVPLYRHIADLAGNPDLVLPVPAFNVINGGSHAGNKLAMQEFMILPVGASSFKEAMRIGAEVYHHLKGVIKAKYGKDATNVGDEGGFAPNILENNEALELLKTAIQAAGYPDKVVIGMDVAASEFYRNGKYDLDFKSPDDPARHISGEKLGELYKSFIKNYPVVSIEDPFDQDDWATWTSFLSGVDIQIVGDDLTVTNPKRIAQAVEKKACNCLLLKVNQIGSVTESIQACKLAQSNGWGVMVSHRSGETEDTFIADLVVGLCTGQIKTGAPCRSERLAKYNQLMRIEEALGDKAVFAGRKFRNPKAK |  | 7.45 |  |
| muscle-specific enzyme from pig: pig muscle β-enolase (protein, UniProt Q1KYT0 2-434, looked up) Beta-enolase: AMQKIFAREILDSRGNPTVEVDLHTAKGRFRAAVPSGASTGIYEALELRDGDKSRYLGKGVLKAVEHINKTLGPALLEKKLSVVDQEKVDKFMIELDGTENKSKFGANAILGVSLAVCKAGAAEKGVPLYRHIADLAGNPDLVLPVPAFNVINGGSHAGNKLAMQEFMILPVGASSFREAMRIGAEVYHHLKGVIKGKYGKDATNVGDEGGFAPNILENNEALELLKTAIQAAGYPDKVVIGMDVAASEFYRNGKYDLDFKSPDDPSRHITGEKLGELYKSFIKNYPVVSIEDPFDQDDWKTWTSFLSGVNIQIVGDDLTVTNLKRIAQAVEKKACNCLLLKVNQIGSVTESIQACKLAQSNGWGVMVSHRSGETEDTFIADLVVGLCTGQIKTGAPCRSERLAKYNQLMRIEEALGDKAVFAGRKFRNPKAK |  | 8.8–9.0 |  |
